According to article PMC4270374 (Biochemistry, 2014):

B1: AfUGMY104A (UDP-galactopyranose mutase from Aspergillus fumigatus, Y104A on the K344A/K345A background) (enzyme)
chain: MTHPDISVDVLVIGAGPTGLGAAKRLNQIDGPSWMIVDSNETPGGLASTDVTPEGFLYDVGGHVIFSHYKYFDDCLDEALPKEDDWYTHQRISYVRCQGQWVPAPFQNNISMLPKEEQVKCIDGMIDAALEARVANTKPKTFDEWIVRMMGTGIADLFMRPYNFKVWAVPTTKMQCAWLGERVAAPNLKAVTTNVILGKTAGNWGPNATFRFPARGGTGGIWIAVANTLPKEKTRFGEKGKVTKVNANNKTVTLQDGTTIGYKKLVSTMAVDFLAEAMNDQELVGLTKQLFYSSTHVIGVGVRGSRPERIGDKCWLYFPEDNCPFYRATIFSNYSPYNQPEASAALPTMQLADGSRPQSTEAKEGPYWSIMLEVSESSMKPVNQETILADCIQGLVNTEMLKPTDEIVSTYHRRFDHGYPTPTLEREGALTQILPKLQDKDIWSRGRFGSWRYEVGNQDHSFMLGVEAVDNIVNGAVELTLNYPDFVNGRQNTERRLVDGAQVFAKSKAQ
B2: AfUGMQ107A (UDP-galactopyranose mutase from Aspergillus fumigatus, Q107A on the K344A/K345A background) (enzyme)
chain: MTHPDISVDVLVIGAGPTGLGAAKRLNQIDGPSWMIVDSNETPGGLASTDVTPEGFLYDVGGHVIFSHYKYFDDCLDEALPKEDDWYTHQRISYVRCQGQWVPYPFANNISMLPKEEQVKCIDGMIDAALEARVANTKPKTFDEWIVRMMGTGIADLFMRPYNFKVWAVPTTKMQCAWLGERVAAPNLKAVTTNVILGKTAGNWGPNATFRFPARGGTGGIWIAVANTLPKEKTRFGEKGKVTKVNANNKTVTLQDGTTIGYKKLVSTMAVDFLAEAMNDQELVGLTKQLFYSSTHVIGVGVRGSRPERIGDKCWLYFPEDNCPFYRATIFSNYSPYNQPEASAALPTMQLADGSRPQSTEAKEGPYWSIMLEVSESSMKPVNQETILADCIQGLVNTEMLKPTDEIVSTYHRRFDHGYPTPTLEREGALTQILPKLQDKDIWSRGRFGSWRYEVGNQDHSFMLGVEAVDNIVNGAVELTLNYPDFVNGRQNTERRLVDGAQVFAKSKAQ
B3: AfUGMY317A (UDP-galactopyranose mutase from Aspergillus fumigatus, Y317A on the K344A/K345A background) (enzyme)
chain: MTHPDISVDVLVIGAGPTGLGAAKRLNQIDGPSWMIVDSNETPGGLASTDVTPEGFLYDVGGHVIFSHYKYFDDCLDEALPKEDDWYTHQRISYVRCQGQWVPYPFQNNISMLPKEEQVKCIDGMIDAALEARVANTKPKTFDEWIVRMMGTGIADLFMRPYNFKVWAVPTTKMQCAWLGERVAAPNLKAVTTNVILGKTAGNWGPNATFRFPARGGTGGIWIAVANTLPKEKTRFGEKGKVTKVNANNKTVTLQDGTTIGYKKLVSTMAVDFLAEAMNDQELVGLTKQLFYSSTHVIGVGVRGSRPERIGDKCWLAFPEDNCPFYRATIFSNYSPYNQPEASAALPTMQLADGSRPQSTEAKEGPYWSIMLEVSESSMKPVNQETILADCIQGLVNTEMLKPTDEIVSTYHRRFDHGYPTPTLEREGALTQILPKLQDKDIWSRGRFGSWRYEVGNQDHSFMLGVEAVDNIVNGAVELTLNYPDFVNGRQNTERRLVDGAQVFAKSKAQ
B4: AfUGMN207A (UDP-galactopyranose mutase from Aspergillus fumigatus, N207A on the K344A/K345A background) (enzyme)
chain: MTHPDISVDVLVIGAGPTGLGAAKRLNQIDGPSWMIVDSNETPGGLASTDVTPEGFLYDVGGHVIFSHYKYFDDCLDEALPKEDDWYTHQRISYVRCQGQWVPYPFQNNISMLPKEEQVKCIDGMIDAALEARVANTKPKTFDEWIVRMMGTGIADLFMRPYNFKVWAVPTTKMQCAWLGERVAAPNLKAVTTNVILGKTAGNWGPAATFRFPARGGTGGIWIAVANTLPKEKTRFGEKGKVTKVNANNKTVTLQDGTTIGYKKLVSTMAVDFLAEAMNDQELVGLTKQLFYSSTHVIGVGVRGSRPERIGDKCWLYFPEDNCPFYRATIFSNYSPYNQPEASAALPTMQLADGSRPQSTEAKEGPYWSIMLEVSESSMKPVNQETILADCIQGLVNTEMLKPTDEIVSTYHRRFDHGYPTPTLEREGALTQILPKLQDKDIWSRGRFGSWRYEVGNQDHSFMLGVEAVDNIVNGAVELTLNYPDFVNGRQNTERRLVDGAQVFAKSKAQ

Target: the molecule itself
Experiment: crystal structure

| Protein | stoichiometry N |
| --- | --- |
| B1 | 4 |
| B2 | 4 |
| B3 | 4 |
| B4 | 4 |
